Here are results for two molecules from patent publication US20110179509A1, “Use of Afamin for Treating Fertility Disorders” (VITATEQ BIOTECHNOLOGY GMBH, priority 2008, published 2011).

“Also recorded” adds a separate entry of the source.

The conditions of data set [1]: human afamin binding alpha- and gamma-tocopherol, radioligand assay; read-out: binding-dissociation constant; cited from earlier work.
Data set [2] concerns infertile male chimeric animals. In words: afamin substitution via intraperitoneal minipump in infertile male chimeric afamin knock-out mice: fertility and testes histology. The format is in vivo, mouse. The source says:
Chimeric mice from ES cells carrying the disrupted afamin allele were generated by microinjection of 10-15 ES cells into 3.5-day-old embryos of the C57B1/J mouse strain. Chimeric animals were mated to C57B1/J or 129/Sv partners, respectively, to establish the afamin mutant allele on a C57B1/J×129/Sv hybrid and on a 129/Sv inbred genetic background. Loss of afamin mRNA and protein was checked by Northern and Western blot analysis.
In order to confirm the role of afamin for fertility, infertile male chimeric animals were substituted with recombinantly produced murine afamin via minipump, which was implanted intraperitonially and released afamin continuously into the organism for 28 days (which corresponds to the time required for spermiogenesis in mice). Control mice received physiological saline solution instead of afamin. At weekly time intervals, plasma was obtained from substituted mice. […] Offspring were, however, exclusively wild-type not carrying the recombinant allele.

The nature of data set [3]: afamin plasma concentration by ELISA during afamin substitution. The format is in vivo, mouse. Particulars: infertile male chimeric mice, intraperitoneal minipump, continuous release for 28 days, plasma at weekly intervals. From the text: In order to analyse the afamin concentrations in the partial knock-out mice, an ELISA kit for quantifying afamin in mouse plasma was developed. For that purpose, a polyclonal antibody against mouse afamin was obtained by immunising rabbits with purified recombinant murine afamin. Recombinant expression of murine afamin was achieved by stable transfection of CHO cells with mouse afamin cDNA followed by purification from serum-free culture supernatants. The obtained polyclonal anti-mouse afamin antibody was purified by affinity chromatography on a sepharose column to which recombinant afamin was covalently bound. This affinity-purified antibody was used to coat ELISA-plates and, after conjugation with horse-radish peroxidase, also for detection using an appropriate substrate reaction. Purified recombinant afamin (quantified by amino acid compositional analysis) served as standard. With this ELISA, an afamin plasma concentration in the range of 6-10 mg/l was measured in wild-type mice which is roughly only 10% of respective plasma levels in humans (3).
In order to confirm the role of afamin for fertility, infertile male chimeric animals were substituted with recombinantly produced murine afamin via minipump, which was implanted intraperitonially and released afamin continuously into the organism for 28 days (which corresponds to the time required for spermiogenesis in mice). […]
For orientation: An ELISA detects its analyte on a solid surface through an enzyme-linked reagent.

B1: afamin: 75-kDa human serum glycoprotein with vitamin E-binding properties, member of the albumin gene family (protein, UniProt P43652 22-599, looked up)
Afamin: LPTQPRDIENFNSTQKFIEDNIEYITIIAFAQYVQEATFEEMEKLVKDMVEYKDRCMADKTLPECSKLPNNVLQEKICAMEGLPQKHNFSHCCSKVDAQRRLCFFYNKKSDVGFLPPFPTLDPEEKCQAYESNRESLLNHFLYEVARRNPFVFAPTLLTVAVHFEEVAKSCCEEQNKVNCLQTRAIPVTQYLKAFSSYQKHVCGALLKFGTKVVHFIYIAILSQKFPKIEFKELISLVEDVSSNYDGCCEGDVVQCIRDTSKVMNHICSKQDSISSKIKECCEKKIPERGQCIINSNKDDRPKDLSLREGKFTDSENVCQERDADPDTFFAKFTFEYSRRHPDLSIPELLRIVQIYKDLLRNCCNTENPPGCYRYAEDKFNETTEKSLKMVQQECKHFQNLGKDGLKYHYLIRLTKIAPQLSTEELVSLGEKMVTAFTTCCTLSEEFACVDNLADLVFGELCGVNENRTINPAVDHCCKTNFAFRRPCFESLKADKTYVPPPFSQDLFTFHADMCQSQNEELQRKTDRFLVNLVKLKHELTDEELQSLFTNFANVVDKCCKAESPEVCFNEESPKIGN
As for B1, the Kd in data set [1] was 18 µM.

B2: recombinantly produced murine afamin: murine afamin expressed by stable transfection of CHO cells with mouse afamin cDNA, purified from serum-free culture supernatants (protein, UniProt O89020 22-608, looked up)
Afamin: LPTKPQDVDHFNATQKFIDENTTYLAIIAFSQYVQEASFDEVETLVKVMLDYRDRCWADNTLPECSKTANDAIQDMLCDMEGLPQKHNFSHCCGKAGFPRRLCFFYNKKANVGFLPPFPTLDPEEKCQAYKNNSESFLHLYMYEVARRNPFVFAPVLLAVAAWFEEAATTCCEQQQKATCFQAKAAPITQYLKASSSYQRNVCGALIKFGPKVLNSINVAVFSKKFPKIGFKDLTTLLEDVSSMYEGCCEGDVVHCIRSQSQVVNHICSKQDSISSKIKVCCEKKTLEREACIINANKDDRPEGLSLREAKFTESENVCQERDSDPDKFFAEFIYEYSRRHPDLSTPELLRITKVYMDFLEDCCSRENPAGCYRHVEDKFNETTQRSLAMVQQECKQFQELGKDTLQRHFLVKFTKAAPQLPMEELVSLSKEMVAALTTCCTLSDEFACVDNLADLVLGELCGVNTNRTINPAVDHCCKTDFAFRRHCFEHLKADTTYELPSVSALVSALHTDWCQPRKEDLQNKKHRFLVNLVKWMPGITDEEWLCLFTKFTAAREECSEVQEPESCFSPESSKTGDESQATEKQR
B2: in data set [2] (after afamin substitution and sacrifice), the “histological examination of testes, spermiogenesis” value is “restoration of normal testes histology, spermiogenesis; also recorded: completely normalised testes tissue and spermiogenesis”. In addition, the “fertility (mating with female wild-type mice)” value in data set [2] (intraperitoneal minipump, 28 days substitution) was “restoration of normal testes histology, spermiogenesis and fertility; also recorded: resulted in several pregnancies and births”. In addition, the “plasma concentrations of afamin” value in data set [3] is “immediately rose to physiological levels and stayed constant during the infusion period”.
